Patent US20140056895 (published 2014)
Positions count from the first letter of the chain named. Names may count otherwise. “And” between values parts separate entries of the source, which are not always exact repeats. Equal entries are not always repeated. Where two headings read alike, the source gives them in different places. One block for each binder: values may come before it.

Tests used:
[1] = target: T1, IL13 (human, UniProt P35225)
[2] = target: T2, IL4 (human, UniProt P05112)
T2 chain: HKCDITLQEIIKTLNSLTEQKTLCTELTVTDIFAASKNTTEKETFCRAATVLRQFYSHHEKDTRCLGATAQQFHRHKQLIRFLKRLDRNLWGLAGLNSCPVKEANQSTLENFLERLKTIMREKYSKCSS

[3] = target: T1, IL13; experiment: SPR
[4] = target: T1, IL13; experiment: SPR; remark: listed apart in the source
[5] = target: T1, IL13; experiment: SPR; remark: listed apart in the source
[6] = target: T1, IL13; experiment: SPR; remark: listed apart in the source
[7] = target: T1, IL13; experiment: SPR; remark: listed apart in the source
[8] = target: EGFR (human, UniProt P00533); experiment: SPR
[9] = target: T2, IL4; experiment: SPR
[10] = target: T2, IL4; experiment: SPR
[11] = target: T2, IL4; experiment: SPR
[12] = target: T2, IL4; experiment: SPR
[13] = target: T2, IL4; experiment: SPR

T1 sequence (P35225 35-146): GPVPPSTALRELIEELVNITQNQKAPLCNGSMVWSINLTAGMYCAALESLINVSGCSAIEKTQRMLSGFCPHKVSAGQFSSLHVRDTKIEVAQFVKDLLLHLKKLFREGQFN

binding result [1]: no binding
binding result [2]: no binding
B1: Cross-over IL4(G4S2)IL13CH1-Fc / IL13(G4S2)IL4CL (antibody)
chain 1: not shown
chain 2: DIVLTQSPASLAVSLGQRATISCRASESVDSYGQSYMHWYQQKAGQPPKLLIYLASNLESGVPARFSGSGSRTDFTLTIDPVQAEDAATYYCQQNAEDSRTFGGGTKLEIKGGGGSGGGGSDIQMTQSPASLSVSVGDTITLTCHASQNIDVWLSWFQQKPGNIPKLLIYKASNLHTGVPSRFSGSGSGTGFTLTISSLQPEDIATYYCQQAHSYPFTFGGGTKLEIKRTVAAPSVFIFPPSDEQLKSGTASVVCLLNNFYPREAKVQWKVDNALQSGNSQESVTEQDSKDSTYSLSSTLTLSKADYEKHKVYACEVTHQGLSSPVTKSFNRGEC

binding result [1]: no binding
B2: Cross-over IL4(G4S)IL13CH1-Fc / IL13(G4S2)IL4CL (antibody)
chain 1: not shown
chain 2: B1 chain 2

Kd [3]: 0.025 nM
Kd [4]: 0.025 nM
B3: CODV-Ig heavy-chain template (batches 201-270, 501-508, 704, 801), IL13 arm (antibody, V domains shown)
VH: EVQLKESGPGLVAPGGSLSITCTVSGFSLTDSSINWVRQPPGKGLEWLGMIWGDGRIDYADALKSRLSISKDSSKSQVFLEMTSLRTDDTATYYCARDGYFPYAMDFWGQGTSVTVSS
VL: DIVLTQSPASLAVSLGQRATISCRASESVDSYGQSYMHWYQQKAGQPPKLLIYLASNLESGVPARFSGSGSRTDFTLTIDPVQAEDAATYYCQQNAEDSRTFGGGTKLEIK

Kd [5]: 0.118 nM
B4: CODV-Ig LC4:HC6, IL13 arm (antibody, V domains shown)
VH: B3 VH
VL: B3 VL

Kd [6]: 0.064 nM and 0.1 nM
B5: CODV-Ig Fc cysteine variants (602, 603), IL13 arm (antibody, V domains shown)
VH: B3 VH
VL: B3 VL

Kd [5]: 0.0934 nM
B6: CODV-Ig LC4:HC4, IL13 arm (antibody, V domains shown)
VH: B3 VH
VL: B3 VL

Kd [5]: 0.0818 nM
B7: parental anti-IL13 mAb (B-B13 humanized) (antibody, V domains shown)
VH: B3 VH
VL: B3 VL

Kd [7]: 0.048 nM
B8: CODV-Fab 421, IL13 arm (antibody, V domains shown)
VH: B3 VH
VL: B3 VL

Kd [8]: 42 nM
B9: CODV-Fab 413, EGFR arm (antibody)
chain 1: not shown
chain 2: EIVLTQSPGTLSVSPGERATLSCRASQSIGSSLHWYQQKPGQAPRLLIKYASQSLSGIPDRFSGSGSGTDFTLTISRLEPEDFAVYYCHQSSRLPHTFGQGTKVEIKGGGGGGGEIVMTQSPATLSLSPGERATLSCRASQSVSSYLAWYQQKPGQAPRLLIYDASNRATGIPARFSGSGSGTDFTLTISSLEPEDFAVYYCHQYGSTPLTFGGGTKAEIKGGGGGRTVAAPSVFIFPPSDEQLKSGTASVVCLLNNFYPREAKVQWKVDNALQSGNSQESVTEQDSKDSTYSLSSTLTLSKADYEKHKVYACEVTHQGLSSPVTKSFNRGEC

Kd [8]: 124 nM
B10: CODV-Ig 411 HC13/LC13, EGFR arm (antibody)
chain 1: not shown
chain 2: B9 chain 2

binding result [1]: no binding
B11: Cross-over IL4(G4S)IL13CH1-Fc / IL13(G4S)IL4CL (antibody)
chain 1: not shown
chain 2: DIVLTQSPASLAVSLGQRATISCRASESVDSYGQSYMHWYQQKAGQPPKLLIYLASNLESGVPARFSGSGSRTDFTLTIDPVQAEDAATYYCQQNAEDSRTFGGGTKLEIKGGGGSDIQMTQSPASLSVSVGDTITLTCHASQNIDVWLSWFQQKPGNIPKLLIYKASNLHTGVPSRFSGSGSGTGFTLTISSLQPEDIATYYCQQAHSYPFTFGGGTKLEIKRTVAAPSVFIFPPSDEQLKSGTASVVCLLNNFYPREAKVQWKVDNALQSGNSQESVTEQDSKDSTYSLSSTLTLSKADYEKHKVYACEVTHQGLSSPVTKSFNRGEC

binding result [1]: no binding
B12: Cross-over IL4(G4S2)IL13CH1-Fc / IL13(G4S)IL4CL (antibody)
chain 1: not shown
chain 2: B11 chain 2

Kd [9]: 0.00914 nM
B13: CODV-Ig LC4:HC4, IL4 arm (antibody, V domains shown)
VH: QVQLQQSGPELVKPGASVKISCKASGYSFTSYWIHWIKQRPGQGLEWIGMIDPSDGETRLNQRFQGRATLTVDESTSTAYMQLRSPTSEDSAVYYCTRLKEYGNYDSFYFDVWGAGTLVTVSS
VL: DIQMTQSPASLSVSVGDTITLTCHASQNIDVWLSWFQQKPGNIPKLLIYKASNLHTGVPSRFSGSGSGTGFTLTISSLQPEDIATYYCQQAHSYPFTFGGGTKLEIKR

Kd [10]: 0.008 nM
B14: CODV 706, IL4 arm (antibody, V domains shown)
VH: B13 VH with G44C
VL: B13 VL with G100C

Kd [9]: 0.00783 nM
B15: parental anti-IL4 mAb (8D4 humanized) (antibody, V domains shown)
VH: B13 VH
VL: B13 VL

Kd [11]: 0.003 nM
Kd [10]: 0.003 nM
B16: CODV-Ig heavy-chain template (batches 201-270, 501-508, 704, 801), IL4 arm (antibody, V domains shown)
VH: B13 VH
VL: B13 VL

Kd [12]: 0.012 nM
B17: CODV-Fab 421, IL4 arm (antibody, V domains shown)
VH: B13 VH
VL: B13 VL

Kd [9]: 0.0111 nM
B18: CODV-Ig LC4:HC6, IL4 arm (antibody, V domains shown)
VH: B13 VH
VL: B13 VL

Kd [13]: 0.004 nM and 0.01 nM
B19: CODV-Ig Fc cysteine variants (602, 603), IL4 arm (antibody, V domains shown)
VH: B13 VH
VL: B13 VL
